Laboratory results from paper PMC10397247.

T1: P2-AA
T1 chain: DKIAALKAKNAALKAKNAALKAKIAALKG

T2: P2-AA-1HAA-K
T2 chain: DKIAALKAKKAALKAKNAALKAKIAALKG

T3: P2-AA-1HAA-R
T3 chain: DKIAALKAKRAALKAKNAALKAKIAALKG

T4: P2-AA-1HAA-T
T4 chain: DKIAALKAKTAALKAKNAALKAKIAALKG

T5: P2-AA-1HAA-E
T5 chain: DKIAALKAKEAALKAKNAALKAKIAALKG

T6: P2-AA-1HAA-S
T6 chain: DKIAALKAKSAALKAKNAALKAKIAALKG

T7: P11A-bA
T7 chain: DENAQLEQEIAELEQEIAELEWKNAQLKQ

T8: P5A-bA
T8 chain: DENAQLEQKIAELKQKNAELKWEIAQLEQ

T9: P4A-bA
T9 chain: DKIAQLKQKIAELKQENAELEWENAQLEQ

T10: P8A-bA
T10 chain: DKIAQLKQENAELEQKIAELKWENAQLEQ

T11: P1A-bA
T11 chain: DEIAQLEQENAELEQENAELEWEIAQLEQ

T12: P7A-bA
T12 chain: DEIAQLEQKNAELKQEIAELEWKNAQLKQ

T13: P2A-bA
T13 chain: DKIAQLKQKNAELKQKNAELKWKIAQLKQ

T14: P12A-bA
T14 chain: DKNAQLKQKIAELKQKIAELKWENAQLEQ

T15: P6A-bA
T15 chain: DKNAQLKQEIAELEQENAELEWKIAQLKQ

T16: P3A-bA
T16 chain: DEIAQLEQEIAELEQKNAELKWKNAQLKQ

T17: P9A-bA
T17 chain: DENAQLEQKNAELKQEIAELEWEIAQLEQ


What was measured:
P2-AA = biological target: T1, P2-AA; assay: two-hybrid library CCmax; conditions: mean of both orientations;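 also: natural log of median RNA to DNA barcode read ratio; higher means stronger binding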
P2-AA-1HAA-K = biological target: T2, P2-AA-1HAA-K; assay: two-hybrid library CCmax; conditions: mean of both orientations;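 also: natural log of median RNA to DNA barcode read ratio; higher means stronger binding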
P2-AA-1HAA-R = biological target: T3, P2-AA-1HAA-R; assay: two-hybrid library CCmax; conditions: mean of both orientations;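 also: natural log of median RNA to DNA barcode read ratio; higher means stronger binding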
P2-AA-1HAA-T = biological target: T4, P2-AA-1HAA-T; assay: two-hybrid library CCmax; conditions: mean of both orientations;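 also: natural log of median RNA to DNA barcode read ratio; higher means stronger binding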
P2-AA-1HAA-E = biological target: T5, P2-AA-1HAA-E; assay: two-hybrid library CCmax; conditions: mean of both orientations;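 also: natural log of median RNA to DNA barcode read ratio; higher means stronger binding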
P2-AA-1HAA-S = biological target: T6, P2-AA-1HAA-S; assay: two-hybrid library CCmax; conditions: mean of both orientations;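 also: natural log of median RNA to DNA barcode read ratio; higher means stronger binding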
P11A-bA = biological target: T7, P11A-bA; assay: two-hybrid library CCNG1
P5A-bA = biological target: T8, P5A-bA; assay: two-hybrid library CCNG1
P4A-bA = biological target: T9, P4A-bA; assay: two-hybrid library CCNG1
P8A-bA = biological target: T10, P8A-bA; assay: two-hybrid library CCNG1
P1A-bA = biological target: T11, P1A-bA; assay: two-hybrid library CCNG1
P7A-bA = biological target: T12, P7A-bA; assay: two-hybrid library CCNG1
P2A-bA = biological target: T13, P2A-bA; assay: two-hybrid library CCNG1
P12A-bA = biological target: T14, P12A-bA; assay: two-hybrid library CCNG1
P6A-bA = biological target: T15, P6A-bA; assay: two-hybrid library CCNG1
P3A-bA = biological target: T16, P3A-bA; assay: two-hybrid library CCNG1
P9A-bA = biological target: T17, P9A-bA; assay: two-hybrid library CCNG1

interaction score (P2-AA) | interaction score (P2-AA-1HAA-K) | interaction score (P2-AA-1HAA-R) | interaction score (P2-AA-1HAA-T) | interaction score (P2-AA-1HAA-E) | interaction score (P2-AA-1HAA-S) | interaction score (P11A-bA) | interaction score (P5A-bA) | interaction score (P4A-bA) | interaction score (P8A-bA) | interaction score (P1A-bA) | interaction score (P7A-bA) | interaction score (P2A-bA) | interaction score (P12A-bA) | interaction score (P6A-bA) | interaction score (P3A-bA) | interaction score (P9A-bA) | Binder
1.82 | 1.57 | 1.9 | 1.66 | 0.691 | 1.57 |  |  |  |  |  |  |  |  |  |  |  | DEIAALEAEEAALEAENAALEAEIAALEG [P1-AA-1HAA-E]
 |  |  |  |  |  | 0.99 | 0.318 | 0.592 | -0.165 | 0.776 | 1.04 | -0.362 | 0.511 | -0.543 | 0.562 |  | DKNAQLKQENAELEQKIAELKWKIAQLKQ [P10A-bA]
 |  |  |  |  |  | -1.39 | 0.849 | 1.83 | -0.166 | 0.307 | -1.28 | 1.07 | 1.91 | 0.118 | -0.656 | -0.585 | DENAQLEQEIAELEQEIAELEWKNAQLKQ [P11A-bA]
